In PMC8028046:
pKd: −log10 of the molar value.

How the values were obtained:
[1] = target: amyloid-beta fibrils (Homo sapiens) (UniProt P05067); assay: SPR; conditions: cited from earlier work
Aβ42 fibrils (human) = Aβ42 fibrils (human) (UniProt P05067); assay: SPR; Aβ42 fibrils immobilized; BRICHOS at 0.391-12.5 μM; global heterogeneous ligand model with two binding sites; apparent constants
[2] = target: soluble Aβ42 aggregates of different sizes (human) (UniProt P05067); assay: FCCS; time course of aggregation of 5, 10 or 20 μM unlabeled Aβ42 with 100 nM HiLyteFluor488-Aβ42 and 483 nM proSP-C BRICHOS T187R (100 nM labeled with Atto655); auto- and cross-correlation curves analysed by MEMFCS and a two-component 3D diffusion model
Chain of soluble Aβ42 aggregates of different sizes (human) (P05067 671-713): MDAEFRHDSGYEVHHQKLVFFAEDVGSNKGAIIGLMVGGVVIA

Chain of Aβ42 fibrils (human) (P05067 671-713): as above
Chain of proSP-C BRICHOS WT (P11686 59-197): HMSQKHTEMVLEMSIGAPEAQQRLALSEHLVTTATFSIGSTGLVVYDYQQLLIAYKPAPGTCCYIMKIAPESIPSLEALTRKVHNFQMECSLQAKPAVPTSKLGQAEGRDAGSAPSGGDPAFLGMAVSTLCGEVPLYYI
Chain of proSP-C BRICHOS BRICHOS (P11686 91-197): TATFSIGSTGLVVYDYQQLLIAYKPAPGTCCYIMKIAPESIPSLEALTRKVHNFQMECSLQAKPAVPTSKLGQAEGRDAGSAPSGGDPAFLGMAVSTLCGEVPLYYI
Chain of amyloid-beta fibrils (Homo sapiens) (P05067 672-713): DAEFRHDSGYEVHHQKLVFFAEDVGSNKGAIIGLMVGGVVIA

Substance	pKd [1]	KD2 (binding site 2, apparent) (Aβ42 fibrils (human))	ka2 (binding site 2) (Aβ42 fibrils (human))	kd2 (binding site 2) (Aβ42 fibrils (human))	stoichiometry N [2]
proSP-C BRICHOS BRICHOS (from UniProt P11686)	7.40	–	–	–	–
proSP-C BRICHOS T187R (from UniProt P11686 59-197) (domain or fragment)	–	25 nM	6800 M^–1 s^–1	0.00017 s^–1	–
proSP-C BRICHOS T187R-Atto655 (from UniProt P11686 59-197) (domain or fragment)	–	–	–	–	< 10
proSP-C BRICHOS WT (from UniProt P11686 59-197) (domain or fragment)	–	130 nM	1770 M^–1 s^–1	0.00023 s^–1	–
